Measurements from patent publication US20180282410A1 (Hoffmann-La Roche, published 2018).
Like-named read-outs stand apart in the source and are kept apart here.

How the values were obtained:
Assay in all cases: cell-based or functional assay
[1] = biological target: T1, full-length human Robo 4 (on cells) (human, UniProt Q8WZ75 28-1007)
T1 sequence: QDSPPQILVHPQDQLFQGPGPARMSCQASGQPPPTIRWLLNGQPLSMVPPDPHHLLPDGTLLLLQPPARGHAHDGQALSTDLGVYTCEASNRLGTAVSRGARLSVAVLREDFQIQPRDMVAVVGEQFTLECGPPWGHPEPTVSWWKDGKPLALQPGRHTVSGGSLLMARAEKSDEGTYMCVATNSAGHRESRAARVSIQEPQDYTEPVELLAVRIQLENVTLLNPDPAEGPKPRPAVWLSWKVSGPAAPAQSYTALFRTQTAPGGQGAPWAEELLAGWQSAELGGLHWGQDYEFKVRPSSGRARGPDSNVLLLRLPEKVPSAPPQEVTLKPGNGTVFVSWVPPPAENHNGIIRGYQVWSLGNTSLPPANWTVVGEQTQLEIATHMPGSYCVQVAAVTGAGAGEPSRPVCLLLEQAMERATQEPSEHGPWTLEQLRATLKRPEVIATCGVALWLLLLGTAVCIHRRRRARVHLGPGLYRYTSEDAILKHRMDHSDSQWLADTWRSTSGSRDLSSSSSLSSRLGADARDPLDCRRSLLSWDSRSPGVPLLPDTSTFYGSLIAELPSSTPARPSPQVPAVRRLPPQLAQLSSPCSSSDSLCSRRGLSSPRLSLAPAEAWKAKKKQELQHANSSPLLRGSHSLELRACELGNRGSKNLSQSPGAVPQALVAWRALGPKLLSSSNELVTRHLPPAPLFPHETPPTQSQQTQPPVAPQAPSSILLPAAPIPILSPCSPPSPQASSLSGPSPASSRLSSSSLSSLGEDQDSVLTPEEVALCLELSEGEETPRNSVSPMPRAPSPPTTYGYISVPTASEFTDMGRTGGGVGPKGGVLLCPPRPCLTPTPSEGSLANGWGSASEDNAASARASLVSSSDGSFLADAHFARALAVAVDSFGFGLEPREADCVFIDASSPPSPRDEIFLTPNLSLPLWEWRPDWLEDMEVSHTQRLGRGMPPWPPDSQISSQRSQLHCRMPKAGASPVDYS

[2] = biological target: T1, full-length human Robo 4 (on cells); remark: listed apart in the source
[3] = biological target: T2, mouse Robo 4 on MS-1 mouse endothelial cells (mouse, UniProt Q8C310 28-1012)
T2 sequence: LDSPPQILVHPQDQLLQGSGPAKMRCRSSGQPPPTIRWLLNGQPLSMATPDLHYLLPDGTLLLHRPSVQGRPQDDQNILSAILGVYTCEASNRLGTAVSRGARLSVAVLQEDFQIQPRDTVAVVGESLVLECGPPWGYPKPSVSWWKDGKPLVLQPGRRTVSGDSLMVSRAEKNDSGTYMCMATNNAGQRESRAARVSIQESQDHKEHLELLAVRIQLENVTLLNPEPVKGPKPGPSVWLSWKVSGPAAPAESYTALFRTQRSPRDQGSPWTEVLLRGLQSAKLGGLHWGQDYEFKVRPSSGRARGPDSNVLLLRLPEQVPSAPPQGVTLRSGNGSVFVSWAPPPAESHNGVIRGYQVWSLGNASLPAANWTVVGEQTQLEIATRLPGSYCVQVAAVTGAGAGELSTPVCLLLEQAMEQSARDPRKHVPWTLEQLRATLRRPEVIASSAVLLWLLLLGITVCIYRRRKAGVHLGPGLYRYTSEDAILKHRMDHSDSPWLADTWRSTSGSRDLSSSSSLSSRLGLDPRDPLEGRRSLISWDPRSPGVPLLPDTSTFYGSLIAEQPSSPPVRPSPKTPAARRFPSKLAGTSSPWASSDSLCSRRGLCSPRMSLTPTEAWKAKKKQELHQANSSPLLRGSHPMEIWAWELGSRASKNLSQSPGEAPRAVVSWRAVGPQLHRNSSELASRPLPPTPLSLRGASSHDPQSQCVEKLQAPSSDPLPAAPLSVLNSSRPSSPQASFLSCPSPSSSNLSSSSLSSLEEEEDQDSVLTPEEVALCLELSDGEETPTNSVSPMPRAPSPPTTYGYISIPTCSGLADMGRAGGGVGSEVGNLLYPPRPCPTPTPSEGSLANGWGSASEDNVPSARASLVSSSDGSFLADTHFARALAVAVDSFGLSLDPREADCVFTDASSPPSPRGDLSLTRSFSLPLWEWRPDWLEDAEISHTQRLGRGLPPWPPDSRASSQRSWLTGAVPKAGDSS

[4] = biological target: T1, full-length human Robo 4 (on cells); remark: listed apart in the source

B1: Molecule L, 2+1 Fab-Fab-CrossFab (VH/VL exchange in CD3 binder, CD3 binder V9, Robo 4 binders 01F05) (bispecific antibody)
chain 1: QVQLKQSGAELVKPGASVKISCKTSVYTFTYGYMHWVEQKPGQGLEWIGRIDPDSGNSMYNQKFQGRATLTRDKSSSTVYMELRSLTSEDSAVYYCARSMRYSGYRDYALDLWGQGTQVTVSSASTKGPSVFPLAPSSKSTSGGTAALGCLVKDYFPEPVTVSWNSGALTSGVHTFPAVLQSSGLYSLSSVVTVPSSSLGTQTYICNVNHKPSNTKVDKKVEPKSCDGGGGSGGGGSQVQLKQSGAELVKPGASVKISCKTSVYTFTYGYMHWVEQKPGQGLEWIGRIDPDSGNSMYNQKFQGRATLTRDKSSSTVYMELRSLTSEDSAVYYCARSMRYSGYRDYALDLWGQGTQVTVSSASTKGPSVFPLAPSSKSTSGGTAALGCLVKDYFPEPVTVSWNSGALTSGVHTFPAVLQSSGLYSLSSVVTVPSSSLGTQTYICNVNHKPSNTKVDKKVEPKSCDGGGGSGGGGSDIQMTQSPSSLSASVGDRVTITCRASQDIRNYLNWYQQKPGKAPKLLIYYTSRLESGVPSRFSGSGSGTDYTLTISSLQPEDFATYYCQQGNTLPWTFGQGTKVEIKSSASTKGPSVFPLAPSSKSTSGGTAALGCLVKDYFPEPVTVSWNSGALTSGVHTFPAVLQSSGLYSLSSVVTVPSSSLGTQTYICNVNHKPSNTKVDKKVEPKSC
chain 2: QLVLTQSPSASASLGASVKLTCTLSSQHSSYGITWLQQHPDKAPKYVMYLKSDGSHTKGADIPDRFSGSSSGVHRYLSISNVQPEDEAIYFCVTYDSTHVFGSGTQLTVLGQPKAAPSVTLFPPSSEELQANKATLVCLISDFYPGAVTVAWKADSSPVKAGVETTTPSKQSNNKYAASSYLSLTPEQWKSHRSYSCQVTHEGSTVEKTVAPTECS
chain 3: EVQLVESGGGLVQPGGSLRLSCAASGYSFTGYTMNWVRQAPGKGLEWVALINPYKGVSTYNQKFKDRFTISVDKSKNTAYLQMNSLRAEDTAVYYCARSGYYGDSDWYFDVWGQGTLVTVSSASVAAPSVFIFPPSDEQLKSGTASVVCLLNNFYPREAKVQWKVDNALQSGNSQESVTEQDSKDSTYSLSSTLTLSKADYEKHKVYACEVTHQGLSSPVTKSFNRGEC
EC50 of T-cell mediated killing of HUVECs (LDH release, human PBMCs, E:T 10:1), 24 h [1]: 0.372 nM
EC50 of T-cell mediated killing of HUVECs (LDH release, human PBMCs, E:T 10:1), 48 h [1]: 0.236 nM

B2: Molecule D, 1+1 CrossFab-IgG (VH/VL exchange in CD3 binder, CD3 binder V9, Robo 4 binder 7G2) (bispecific antibody)
chain 1: not shown
chain 2: EIVLTQSPGTLSLSPGERATLSCRASQSVSSSYLAWYQQKPGQAPRLLIYGASSRATGIPDRFSGSGSGTDFTLTISRLEPEDFAVYYCQQGQLPPRTFGQGTKVEIKRTVAAPSVFIFPPSDEQLKSGTASVVCLLNNFYPREAKVQWKVDNALQSGNSQESVTEQDSKDSTYSLSSTLTLSKADYEKHKVYACEVTHQGLSSPVTKSFNRGEC
chain 3: EVQLVESGGGLVQPGGSLRLSCAASGYSFTGYTMNWVRQAPGKGLEWVALINPYKGVSTYNQKFKDRFTISVDKSKNTAYLQMNSLRAEDTAVYYCARSGYYGDSDWYFDVWGQGTLVTVSSASVAAPSVFIFPPSDEQLKSGTASVVCLLNNFYPREAKVQWKVDNALQSGNSQESVTEQDSKDSTYSLSSTLTLSKADYEKHKVYACEVTHQGLSSPVTKSFNRGEC
chain 4: DKTHTCPPCPAPEAAGGPSVFLFPPKPKDTLMISRTPEVTCVVVDVSHEDPEVKFNWYVDGVEVHNAKTKPREEQYNSTYRVVSVLTVLHQDWLNGKEYKCKVSNKALGAPIEKTISKAKGQPREPQVCTLPPSRDELTKNQVSLSCAVKGFYPSDIAVEWESNGQPENNYKTTPPVLDSDGSFFLVSKLTVDKSRWQQGNVFSCSVMHEALHNHYTQKSLSLSPGK
EC50 of T-cell mediated killing of HUVECs (LDH release, human pan T cells, E:T 5:1, 22 h) [2]: 3.14 nM

B3: Molecule A, 1+1 CrossFab-IgG (VH/VL exchange in CD3 binder, CD3 binder V9, Robo 4 binder 01F09) (bispecific antibody)
chain 1: not shown
chain 2: QPVLTQSPSASASLGASVKLTCTLNSQFSTYNIGWYQQHRDKPPKYVMFVKGDGGHSKADGIPDRFSGSSSGADRYLTISNIQAEDEAIYFCGADYNNAGQYGCVFGSGTHFTVLGQPKAAPSVTLFPPSSEELQANKATLVCLISDFYPGAVTVAWKADSSPVKAGVETTTPSKQSNNKYAASSYLSLTPEQWKSHRSYSCQVTHEGSTVEKTVAPTECS
chain 3: EVQLVESGGGLVQPGGSLRLSCAASGYSFTGYTMNWVRQAPGKGLEWVALINPYKGVSTYNQKFKDRFTISVDKSKNTAYLQMNSLRAEDTAVYYCARSGYYGDSDWYFDVWGQGTLVTVSSASVAAPSVFIFPPSDEQLKSGTASVVCLLNNFYPREAKVQWKVDNALQSGNSQESVTEQDSKDSTYSLSSTLTLSKADYEKHKVYACEVTHQGLSSPVTKSFNRGEC
chain 4: DKTHTCPPCPAPEAAGGPSVFLFPPKPKDTLMISRTPEVTCVVVDVSHEDPEVKFNWYVDGVEVHNAKTKPREEQYNSTYRVVSVLTVLHQDWLNGKEYKCKVSNKALGAPIEKTISKAKGQPREPQVCTLPPSRDELTKNQVSLSCAVKGFYPSDIAVEWESNGQPENNYKTTPPVLDSDGSFFLVSKLTVDKSRWQQGNVFSCSVMHEALHNHYTQKSLSLSPGK
EC50 of T-cell mediated killing of HUVECs (LDH release, human pan T cells, E:T 5:1, 22 h) [2]: 0.137 nM

B4: Molecule M, 2+1 CrossFab-IgG, inverted, with charge modifications (VH/VL exchange in CD3 binder, charge modification in Robo 4 binders, CD3 binder of SEQ ID … (bispecific antibody)
chain 1: QVQLKQSGAELVKPGASVKISCKTSVYTFTYGYMHWVEQKPGQGLEWIGRIDPDSGNSMYNQKFQGRATLTRDKSSSTVYMELRSLTSEDSAVYYCARSMRYSGYRDYALDLWGQGTQVTVSSASTKGPSVFPLAPSSKSTSGGTAALGCLVEDYFPEPVTVSWNSGALTSGVHTFPAVLQSSGLYSLSSVVTVPSSSLGTQTYICNVNHKPSNTKVDEKVEPKSCDKTHTCPPCPAPEAAGGPSVFLFPPKPKDTLMISRTPEVTCVVVDVSHEDPEVKFNWYVDGVEVHNAKTKPREEQYNSTYRVVSVLTVLHQDWLNGKEYKCKVSNKALGAPIEKTISKAKGQPREPQVCTLPPSRDELTKNQVSLSCAVKGFYPSDIAVEWESNGQPENNYKTTPPVLDSDGSFFLVSKLTVDKSRWQQGNVFSCSVMHEALHNHYTQKSLSLSP
chain 2: not shown
chain 3: EVQLLESGGGLVQPGGSLRLSCAASGFTFSTYAMNWVRQAPGKGLEWVSRIRSKYNNYATYYADSVKGRFTISRDDSKNTLYLQMNSLRAEDTAVYYCVRHGNFGNSYVSWFAYWGQGTLVTVSSASVAAPSVFIFPPSDEQLKSGTASVVCLLNNFYPREAKVQWKVDNALQSGNSQESVTEQDSKDSTYSLSSTLTLSKADYEKHKVYACEVTHQGLSSPVTKSFNRGEC
chain 4: QLVLTQSPSASASLGASVKLTCTLSSQHSSYGITWLQQHPDKAPKYVMYLKSDGSHTKGADIPDRFSGSSSGVHRYLSISNVQPEDEAIYFCVTYDSTHVFGSGTQLTVLGQPKAAPSVTLFPPSSKKLQANKATLVCLISDFYPGAVTVAWKADSSPVKAGVETTTPSKQSNNKYAASSYLSLTPEQWKSHRSYSCQVTHEGSTVEKTVAPTECS
EC50 of T-cell mediated killing of MS-1 cells (LDH release, human PBMCs, E:T 10:1), 24 h [3]: 0.275 nM
EC50 of T-cell mediated killing of MS-1 cells (LDH release, human PBMCs, E:T 10:1), 48 h [3]: 0.119 nM
EC50 of T-cell mediated killing of HUVECs (LDH release, human PBMCs, E:T 10:1), 24 h [4]: 0.173 nM
EC50 of T-cell mediated killing of HUVECs (LDH release, human PBMCs, E:T 10:1), 48 h [4]: 0.125 nM

B5: Molecule H, 1+1 Fab-CrossFab (VH/VL exchange in CD3 binder, CD3 binder V9, Robo 4 binder 7G2) (bispecific antibody)
chain 1: not shown
chain 2: EIVLTQSPGTLSLSPGERATLSCRASQSVSSSYLAWYQQKPGQAPRLLIYGASSRATGIPDRFSGSGSGTDFTLTISRLEPEDFAVYYCQQGQLPPRTFGQGTKVEIKRTVAAPSVFIFPPSDEQLKSGTASVVCLLNNFYPREAKVQWKVDNALQSGNSQESVTEQDSKDSTYSLSSTLTLSKADYEKHKVYACEVTHQGLSSPVTKSFNRGEC
chain 3: EVQLVESGGGLVQPGGSLRLSCAASGYSFTGYTMNWVRQAPGKGLEWVALINPYKGVSTYNQKFKDRFTISVDKSKNTAYLQMNSLRAEDTAVYYCARSGYYGDSDWYFDVWGQGTLVTVSSASVAAPSVFIFPPSDEQLKSGTASVVCLLNNFYPREAKVQWKVDNALQSGNSQESVTEQDSKDSTYSLSSTLTLSKADYEKHKVYACEVTHQGLSSPVTKSFNRGEC
EC50 of T-cell mediated killing of HUVECs (LDH release, human pan T cells, E:T 5:1, 22 h) [2]: 2.76 nM
